Experiment [1] has as its target T1, human DLL4, full length, on cells (human, UniProt Q9NR61 27-685).
T1 construct: also called huDLL4 cells; human DLL4-293G
Briefly: FACS, DLL4 cells.

The target in experiment [2] is T1, human DLL4, full length, on cells. The experiment in a line: competition FACS: huNotch-1 to DLL4 cells. The protocol:
(§1) Notch blocking assay: Briefly, stable cell lines overexpressing cell-surface DLL4 were harvested from tissue culture flasks and re-suspended in phosphate buffered saline (PBS) containing 1% bovine serum albumin and 1 mM CaCl₂ (FACS buffer). HEK293G-DLL4 cells were dispensed into 96-well plate (v-bottom) at 1.5×10⁵ cells/well in FACS buffer. After spinning down cells and discarding the supernatant, 50 μL of purified IgG with appropriate dilution were added to each well, and incubated on ice at 4° C. for 60 minutes, followed by addition of 50 μL/well of Notch1-biotin at 0.2 μg/mL for human DLL4-293G or 2.0 μg/mL for mouse DLL4-293G (1.0 or 0.1 μg/mL final) for an additional 1 hour incubation ice at 4° C. After washing the cells two times with FACS buffer, 50 μL of R-phycoerythrin-conjugated streptavidin (1:150 dilution in FACS buffer) (Jackson ImmunoResearch, West Grove, Pa., Cat.#016-110-084) were added. Following an incubation on ice (4° C., 60 minutes), cells were washed three times and resuspended in FACS buffer. Fluorescence was measured using a Becton Dickinson FACSCalibur-HTS (Becton Dickinson, San Jose, Calif.). Data were analyzed using Graphpad Prism software, and IC₅₀ values were reported as the concentration of antibody to achieve 50% reduction of Notch1 bound to DLL4 expressing cells.

The target of experiment [3] is T2, mouse DLL4 on cells (mouse, UniProt Q9JI71 27-686).
T2 construct: whole, on cells; also called mouse DLL4-293G; mu DLL4 cells
The experiment in a line: FACS, DLL4 cells. (In general: Flow cytometry measures light scatter and fluorescence of single cells or particles in a stream.)

In experiment [4] the target is T3, human DLL4 extracellular domain (human, UniProt Q9NR61 27-529).
T3 construct: purified recombinant ECD; biotin-labelled or 6xHis-tagged depending on the assay; also called huDLL4 ECD; hu DLL4 ECD
Briefly: SPR (Biacore). The protocol: (§2) The BIACORE® surface plasmon resonance assay (Biacore, Inc., Piscataway, N.J., US) determines the affinity of antibodies with kinetic measurements of on-rate and off-rate constants. Binding of DLL4 antibodies to a purified recombinant DLL4 extracellular domain (ECD) was determined by surface plasmon resonance-based measurements with a Biacore® instrument (either a Biacore 2000, Biacore 3000, or Biacore T100; GE Healthcare, Piscataway, N.J., US) using running buffer HBS-EPB (10 mM HEPES [pH 7.4], 150 mM NaCl, 3 mM EDTA, 0.1 mg/ml BSA and 0.005% surfactant P20) at 25° C. For example, approximately 9000 RU of goat anti-human Fc specific polyclonal antibody (Thermo Fisher Scientific Inc., Rockford, Ill., US) diluted in 10 mM sodium acetate (pH 4.5) is directly immobilized across a CMS research grade biosensor chip using a standard amine coupling kit according to manufacturer's instructions and procedures at 25 μg/ml. Unreacted moieties on the biosensor surface were blocked with ethanolamine. For kinetic analysis, rate equations derived from the 1:1 Langmuir binding model were fitted simultaneously to multiple antigen injections (using global fit analysis) with the use of Scrubber 2 (BioLogic Software), Biacore Biaevaluation 4.0.1 software or Biacore T100 Evaluation software. Purified antibodies were diluted in running buffer for capture across goat anti-human Fc reaction surfaces. Antibodies to be captured as a ligand (1 μg/ml) were injected over reaction matrices at a flow rate of 10 μl/min. During the assay, all measurements were referenced against the capture surface alone (i.e., with no captured anti-DLL4 antibody). […] The equilibrium dissociation constant KD (M) of the reaction between antibodies and the target antigen was then calculated from the kinetic rate constants by the following formula: KD=Koff/Kₒₙ. Binding was recorded as a function of time and kinetic rate constants were calculated.
(In SPR one partner is held on a chip, and binding of the other changes the refractive index at the surface.)

Experiment [5] deals with T4, cynomolgus monkey DLL4 extracellular domain (cynomolgus monkey).
T4 construct: extracellular domain; also called cynoDLL4 ECD; Cyno DLL4
The experiment in a line: SPR (Biacore). The protocol:
as §2

In experiment [6] the target is T5, mouse DLL4 extracellular domain (mouse, UniProt Q9JI71 27-532).
T5 construct: extracellular domain; also called muDLL4 ECD; murine DLL4
The experiment in a line: SPR (Biacore). The gist of the method:
(§3)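 Purified anti-DLL4 antibodies (1 μg/ml) captured on immobilized goat anti-human Fc, with DLL4 ECD injected as analyte; HBS-EPB running buffer (pH 7.4), 25° C, referenced against capture-only surface. On/off rates from global 1:1 Langmuir fit; KD = Koff/Kon.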

Experiment [7] deals with T6, rat DLL4 extracellular domain (rat, UniProt D3ZHH1 28-530).
T6 construct: extracellular domain; also called ratDLL4 ECD
Briefly: SPR (Biacore). An outline of the steps:
as §3

The target of experiment [8] is T1, human DLL4, full length, on cells. The experiment in a line: FACS, DLL4 cells. The protocol:
(§4) Stable cell lines overexpressing cell-surface DLL4 were harvested from tissue culture flasks, washed four times and resuspended in phosphate buffered saline (PBS) containing 1% bovine serum albumin and 1 mM CaCl₂ (FACS buffer). 1.5×10⁵ cells were incubated with antibodies at various concentrations in FACS buffer for 60 minutes on ice. […] Following an incubation on ice (4° C., 60 minutes), cells were washed three times and resuspended in FACS buffer. Fluorescence was measured using a Becton Dickinson FACSCalibur-HTS (Becton Dickinson, San Jose, Calif., US). Data were analyzed using Graphpad Prism software and EC₅₀ values were reported as the concentration of antibody to achieve 50% of maximal DLL4 antibodies binding to DLL4 expressing cells. […]
This is another data set of the same source.

In experiment [9] the target is T2, mouse DLL4 on cells. The experiment in a line: FACS, DLL4 cells. The protocol:
as §4
This is another data set of the same source.

The target in experiment [10] is T1, human DLL4, full length, on cells. The experiment in a line: cell-based or functional assay.
Experiment [11] shares this target. The experiment in a line: competition FACS: huNotch-1-biotin to DLL4 cells. The protocol:
as §1, with “cells. […]” for “cells.”

The target of experiment [12] is T3, human DLL4 extracellular domain. Briefly: SPR (Biacore). The source holds these as a separate data set.
For experiment [13] the target is unchanged. Briefly: binding ELISA. For orientation: ELISA stands for enzyme-linked immunosorbent assay.
Experiment [14] concerns the target T4, cynomolgus monkey DLL4 extracellular …. The experiment in a line: binding ELISA.
The target of experiment [15] is T5, mouse DLL4 extracellular domain. Briefly: binding ELISA.
In experiment [16] the target is T3, human DLL4 extracellular domain. Briefly: SPR (Biacore). An outline of the steps: as §3
The source holds these as a separate data set.

Experiment [17] addresses T4, cynomolgus monkey DLL4 extracellular …. Briefly: SPR (Biacore). The gist of the method: as §3
The source holds these as a separate data set.

Experiment [18] addresses T5, mouse DLL4 extracellular domain. The experiment in a line: SPR (Biacore). The gist of the method:
as §3
The source holds these as a separate data set.

Experiment [19] addresses T6, rat DLL4 extracellular domain. Briefly: SPR (Biacore). The gist of the method: as §3
The source holds these as a separate data set.

Experiment [20] concerns the target T1, human DLL4, full length, on cells. The experiment in a line: FACS, DLL4 cells. The source holds these as a separate data set.
Experiment [21] addresses T2, mouse DLL4 on cells. The experiment in a line: FACS, DLL4 cells. This is another data set of the same source.
For experiment [22], the target named is T1, human DLL4, full length, on cells. The experiment in a line: cell-based or functional assay. The source holds these as a separate data set.
Experiment [23] concerns the target T3, human DLL4 extracellular domain. Briefly: competition ELISA vs Notch-1.
Experiment [24] addresses T5, mouse DLL4 extracellular domain. Briefly: competition ELISA vs Notch-1.

In general, EC50 refers to the midpoint of the concentration-response curve. Usually IC50 stands for the concentration that inhibits the measured activity by half. In general, Kd refers to the equilibrium constant for the complex coming apart. The term koff denotes a measure of how fast the partners let go of each other. A word on the kon: it is a measure of how fast the partners come together.

Read-outs that look alike come from different tables or passages of the source.

T1 sequence (Q9NR61 27-685 limits assumed): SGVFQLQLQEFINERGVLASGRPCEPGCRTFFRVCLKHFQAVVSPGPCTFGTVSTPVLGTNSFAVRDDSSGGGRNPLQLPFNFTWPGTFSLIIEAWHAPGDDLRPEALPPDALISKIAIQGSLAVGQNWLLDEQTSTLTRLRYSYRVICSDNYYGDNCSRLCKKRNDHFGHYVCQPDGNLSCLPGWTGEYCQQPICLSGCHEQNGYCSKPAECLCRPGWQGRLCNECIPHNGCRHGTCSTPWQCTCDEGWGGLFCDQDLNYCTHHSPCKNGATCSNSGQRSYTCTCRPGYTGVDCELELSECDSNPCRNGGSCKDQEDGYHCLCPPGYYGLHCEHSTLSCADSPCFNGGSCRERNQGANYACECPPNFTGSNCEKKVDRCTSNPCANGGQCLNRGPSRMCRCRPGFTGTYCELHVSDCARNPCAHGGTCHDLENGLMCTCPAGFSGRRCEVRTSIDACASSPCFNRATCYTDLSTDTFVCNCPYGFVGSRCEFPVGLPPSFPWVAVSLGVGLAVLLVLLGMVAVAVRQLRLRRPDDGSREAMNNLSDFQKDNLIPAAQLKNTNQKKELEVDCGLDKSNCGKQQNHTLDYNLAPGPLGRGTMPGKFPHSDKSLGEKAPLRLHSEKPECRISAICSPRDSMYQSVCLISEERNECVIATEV
T5 sequence (Q9JI71 27-532): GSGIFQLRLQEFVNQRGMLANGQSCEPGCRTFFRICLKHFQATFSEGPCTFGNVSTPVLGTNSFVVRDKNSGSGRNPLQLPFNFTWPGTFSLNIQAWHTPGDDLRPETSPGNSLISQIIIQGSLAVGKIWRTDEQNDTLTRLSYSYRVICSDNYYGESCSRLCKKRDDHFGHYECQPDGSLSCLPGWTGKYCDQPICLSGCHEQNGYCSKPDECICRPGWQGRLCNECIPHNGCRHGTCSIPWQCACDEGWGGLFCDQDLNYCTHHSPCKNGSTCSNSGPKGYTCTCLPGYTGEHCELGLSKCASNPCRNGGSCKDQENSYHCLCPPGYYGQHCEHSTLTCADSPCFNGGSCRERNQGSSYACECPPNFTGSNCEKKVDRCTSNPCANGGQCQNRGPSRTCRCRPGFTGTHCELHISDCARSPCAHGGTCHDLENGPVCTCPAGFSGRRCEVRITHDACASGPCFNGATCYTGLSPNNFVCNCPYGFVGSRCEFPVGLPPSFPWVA
T3 sequence (Q9NR61 27-529 limits assumed): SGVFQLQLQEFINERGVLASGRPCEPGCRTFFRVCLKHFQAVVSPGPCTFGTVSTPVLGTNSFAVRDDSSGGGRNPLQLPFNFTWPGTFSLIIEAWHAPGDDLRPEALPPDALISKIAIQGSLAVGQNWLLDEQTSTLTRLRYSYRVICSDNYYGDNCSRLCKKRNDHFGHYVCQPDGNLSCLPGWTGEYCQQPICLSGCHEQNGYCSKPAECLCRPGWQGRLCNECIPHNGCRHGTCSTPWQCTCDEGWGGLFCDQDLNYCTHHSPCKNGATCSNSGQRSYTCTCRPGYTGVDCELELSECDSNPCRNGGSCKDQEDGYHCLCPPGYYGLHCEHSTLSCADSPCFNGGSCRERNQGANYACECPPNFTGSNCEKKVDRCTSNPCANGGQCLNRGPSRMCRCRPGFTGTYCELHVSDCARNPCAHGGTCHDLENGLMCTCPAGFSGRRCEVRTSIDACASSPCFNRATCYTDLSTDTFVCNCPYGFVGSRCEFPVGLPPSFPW
T2 sequence (Q9JI71 27-686): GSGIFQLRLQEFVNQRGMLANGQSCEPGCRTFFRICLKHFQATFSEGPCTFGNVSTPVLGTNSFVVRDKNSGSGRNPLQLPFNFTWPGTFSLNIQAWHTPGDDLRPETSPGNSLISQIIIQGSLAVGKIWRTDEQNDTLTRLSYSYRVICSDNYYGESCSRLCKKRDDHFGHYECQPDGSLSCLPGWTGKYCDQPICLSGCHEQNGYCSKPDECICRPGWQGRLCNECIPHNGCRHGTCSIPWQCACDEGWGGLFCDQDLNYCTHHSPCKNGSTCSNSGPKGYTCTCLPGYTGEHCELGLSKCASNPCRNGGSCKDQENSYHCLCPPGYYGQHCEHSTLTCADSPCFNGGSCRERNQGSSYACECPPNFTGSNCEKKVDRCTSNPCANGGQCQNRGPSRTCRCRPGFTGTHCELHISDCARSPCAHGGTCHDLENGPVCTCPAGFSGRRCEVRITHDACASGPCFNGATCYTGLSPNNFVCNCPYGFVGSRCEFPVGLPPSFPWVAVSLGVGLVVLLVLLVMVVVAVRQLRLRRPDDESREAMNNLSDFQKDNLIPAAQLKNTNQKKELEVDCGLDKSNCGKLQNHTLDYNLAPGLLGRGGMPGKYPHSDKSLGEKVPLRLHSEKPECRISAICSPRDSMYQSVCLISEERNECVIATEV
T6 sequence (D3ZHH1 28-530): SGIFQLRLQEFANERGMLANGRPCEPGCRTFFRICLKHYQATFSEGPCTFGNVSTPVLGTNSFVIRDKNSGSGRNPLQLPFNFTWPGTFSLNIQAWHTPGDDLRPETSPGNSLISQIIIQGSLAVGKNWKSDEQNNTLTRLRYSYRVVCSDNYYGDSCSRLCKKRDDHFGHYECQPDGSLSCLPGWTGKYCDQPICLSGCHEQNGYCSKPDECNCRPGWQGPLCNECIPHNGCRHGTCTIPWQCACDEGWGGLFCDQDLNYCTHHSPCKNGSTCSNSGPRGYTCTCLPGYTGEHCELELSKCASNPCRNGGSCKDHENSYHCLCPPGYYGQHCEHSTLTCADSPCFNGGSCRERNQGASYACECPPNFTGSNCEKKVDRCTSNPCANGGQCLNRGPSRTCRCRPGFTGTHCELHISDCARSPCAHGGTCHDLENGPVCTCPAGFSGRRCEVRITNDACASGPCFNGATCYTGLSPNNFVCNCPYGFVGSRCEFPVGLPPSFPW

B1: 38H12 chimeric antibody (antibody, human IgG1, V domains shown)
VH: EVQLVESGGGLVQPGRSLKLSCAASGFTFSNYGMYWIRQAPTKGLQWVAFISHGGGITYYRDSVKGRFTISRDNAKSTLYLQMDSLRSEDTATYHCAALNWELGIDYWGQGVMVTVSS
VL: DIQMTQSPASLSASLGETISIECRASEDIYSNLAWYQKKSGKSPQLLIYAANRLQDGVPSRFSGSGSGTQYSLKISGMQPEDEGDYFCLQGSKFPLTFGSGTKLEIKR
notes: also called Chimera of 38H12
Consider B1, for which the EC50 in [1] worked out at 1.47 nM. The IC50 in experiment [2] was 1.44 nM.

B2: 32C7 chimeric antibody (antibody, human IgG1, V domains shown)
VH: EVQLVESGGGLVQPGRSLKLSCLASGFPFSSVWMTWIRQAPGKGLEWIATITNSGASTYYSASVKGRFTISRDNVKSTLYLQMTSLGSEDTATYYCTRVGTSFDYWGQGVMVTVSS
VL: DIQMTQSPASLSASLGETVTIECRASDDIYNGLAWFQQKPGKSPQLLIYDANTLHTGVPSRFSGSGSGTQFSLKINSLQSEDVASYFCQQFYDYPPYTFGAGTKLELKR
notes: also called Chimera of 32C7
For the molecule B2, the EC50 in experiment [1] came out at 3.71 nM; in the experiment with mouse DLL4 on cells [3], 4.11 nM.

B3: 14G1 rat anti-DLL4 monoclonal antibody (antibody, rat IgG2a, V domains shown)
VH: EVQLQQSGAELAKPGSSVKISCKASGYTFTNYDISWIKQTNGQGLEYLGYINTGSGGIYSNEKFKGKATLTVDKSSNTAFMQLSSLTPEDTAVYYCVREGNNFDHWGQGVKVTVSS
VL: DTVMTQSPASMSTSVGERVTVNCKASQSVGTIVAWFQQKPGQSPKRLIYLATYRHTGVPDRFIGSGFGRDFTLTISNVEAEDLAVYYCLQYGSRPFTFGAGTKLEIKR
notes: rat IgG2a/K hybridoma mAb; also called MC13-14G1.1B4
Regarding B3, the results for the Kd in experiment [4] and in experiment [5] were 7.2 nM and 10.5 nM, respectively. Also, the koff is 0.00039 s⁻¹ in [4] and 0.00041 s⁻¹ in [5]. Also, the kon was 54000 M⁻¹ s⁻¹ in experiment [4] and 39000 M⁻¹ s⁻¹ in experiment [5]. Also, the binding result in [6] and in experiment [7] was “no binding” each time. Also, the EC50 is 8.6 nM in [8] and > 50 nM in the experiment with mouse DLL4 on cells [9]. Besides, in experiment [10], the “Notch activation Inhibition (IC50, nM), huDLL4 cell/Notch reporter cells” value stood at 6.1 nM. Moreover, the IC50 in [11] came out at 4.2 nM.

B4: 14G1 chimeric antibody (antibody, human IgG1, V domains shown)
VH: EVQLQQSGAELAKPGSSVKISCKASGYTFTNYDISWIKQTNGQGLEYLGYINTGSGGIYSNEKFKGKATLTVDKSSNTAFMQLSSLTPEDTAVYYCVREGNNFDHWGQGVKVTVSS
VL: DTVMTQSPASMSTSVGERVTVNCKASQSVGTIVAWFQQKPGQSPKRLIYLATYRHTGVPDRFIGSGFGRDFTLTISNVEAEDLAVYYCLQYGSRPFTFGAGTKLEIKR
notes: also called Chimera of 14G1
In turn, B4 had an EC50 in experiment [1] of 0.994 nM. In experiment [2], this molecule displayed an IC50 of 4.11 nM.

B5: h1A11.1 (antibody, V domains shown)
VH: EVQLVESGGGLVQPGGSLRLSCAASGFTFSNFPMAWVRQAPGKGLEWVATISSSDGTTYYRDSVKGRFTISRDNAKNSLYLQMNSLRAEDTAVYYCARGYYNSPFAYWGQGTLVTVSS
VL: DIQMTQSPSSLSASVGDRVTITCRASEDIYSNLAWYQQKPGKAPKLLIYDTNNLADGVPSRFSGSGSGTDFTLTISSLQPEDFATYYCQQYNNYPPTFGQGTKLEIKR
notes: humanized IgG; also called hu1A11.1; VH.1/VL.1 1A11
With B5, the Kd in [12] stood at 15 nM; in [6], 38 nM; in [16], 13 nM; in experiment [17], 18 nM; in experiment [18], 32 nM. In addition, the EC50 in experiment [13] worked out at 0.08 nM; in [14] it was 0.13 nM; in experiment [15], 0.09 nM; in experiment [20], 3.13 nM; with mouse DLL4 on cells [21] it was 0.21 nM. Also, the koff in experiment [16] was determined as 0.00212 s⁻¹; in experiment [17] it was 0.00255 s⁻¹; in experiment [18], 0.00498 s⁻¹. For the same molecule, the kon was found to be 158000 M⁻¹ s⁻¹ in [16], 144000 M⁻¹ s⁻¹ in experiment [17] and 156000 M⁻¹ s⁻¹ in experiment [18]. Also, the binding result in [19] is listed as “no binding”. For the same molecule, the “Reporter Assay (EC50, nM)” value in experiment [22] amounted to 2.53 nM. The IC50 in experiment [23] turned out to be 0.4 nM; in experiment [24], 1.3 nM.

The record behind these values is patent US20110217237A1 (AbbVie / Abbott, published 2011).
